The Immune Epitope Database (IEDB)

Columns and labels:
HLA-B*27:03 = test: IEDB peptide-MHC binding, purified MHC/competitive/fluorescence; filed as Kd, often an IC50 or EC50 that approximates it; ≥ and ≤ were set here for values at or beyond the usual limits of such assays
HLA-B*39:01 = test: as above
HLA-A*02:01 [1] = test: as above
HLA-A*26:01 = test: as above
HLA-A*69:01 [2] = test: as above
HLA-B*08:01 = test: IEDB peptide-MHC binding, purified MHC/direct/fluorescence; filed as Kd, often an IC50 or EC50 that approximates it; ≥ and ≤ were set here for values at or beyond the usual limits of such assays; settings: source organism: Reston ebolavirus - Reston
HLA-B*58:01 = test: as above
HLA-B*57:01 [3] = test: as above
HLA-B*48:01 = test: as above; settings: source organism: Reston ebolavirus - Reston
HLA-B*18:01 [4] = test: as above; settings: source organism: Reston ebolavirus - Reston
HLA-A*31:01 [5] = test: as above; settings: source organism: Reston ebolavirus - Reston
HLA-A*03:01 [6] = test: as above
HLA-B*44:02 = test: as above; settings: source organism: Reston ebolavirus - Reston
HLA-A*11:01 [7] = test: as above
HLA-B*15:01 [8] = test: as above; settings: source organism: Reston ebolavirus - Reston
HLA-A*01:01 = test: as above; settings: source organism: Reston ebolavirus - Reston
HLA-B*27:05 = test: as above; settings: source organism: Reston ebolavirus - Reston
HLA-A*29:02 = test: as above
HLA-B*46:01 [9] = test: as above; settings: source organism: Reston ebolavirus - Reston
HLA-B*57:01 [10] = test: IEDB peptide-MHC binding, purified MHC/competitive/fluorescence; filed as Kd, often an IC50 or EC50 that approximates it; ≥ and ≤ were set here for values at or beyond the usual limits of such assays
HLA-B*18:01 [11] = test: as above
HLA-B*15:17 [12] = test: as above
HLA-B*15:01 [13] = test: as above
HLA-B*51:01 = test: as above
HLA-B*46:01 [14] = test: as above
HLA-A*02:19 = test: IEDB peptide-MHC binding, purified MHC/direct/fluorescence; filed as Kd, often an IC50 or EC50 that approximates it; ≥ and ≤ were set here for values at or beyond the usual limits of such assays
HLA-A*02:11 = test: as above
HLA-A*24:03 = test: as above
HLA-A*02:03 = test: as above
HLA-A*02:12 = test: as above
HLA-B*40:01 = test: as above; settings: source organism: Itapua hantavirus
HLA-A*68:02 [15] = test: as above
HLA-A*02:16 = test: as above
HLA-A*31:01 [16] = test: IEDB peptide-MHC binding, purified MHC/competitive/fluorescence; filed as Kd, often an IC50 or EC50 that approximates it; ≥ and ≤ were set here for values at or beyond the usual limits of such assays
HLA-B*15:17 [17] = test: IEDB peptide-MHC binding, purified MHC/direct/fluorescence; filed as Kd, often an IC50 or EC50 that approximates it; ≥ and ≤ were set here for values at or beyond the usual limits of such assays
HLA-A*24:02 = test: IEDB peptide-MHC binding, purified MHC/competitive/fluorescence; ≥ and ≤ were set here for values at or beyond the usual limits of such assays; settings: source organism: Zaire ebolavirus
HLA-A*02:01 [18] = test: as above; settings: source organism: Zaire ebolavirus
HLA-A*11:01 [19] = test: as above
HLA-B*15:01 [20] = test: as above; settings: source organism: Zaire ebolavirus
HLA-A*02:01 [21] = test: IEDB peptide-MHC binding, purified MHC/direct/fluorescence; filed as Kd, often an IC50 or EC50 that approximates it; ≥ and ≤ were set here for values at or beyond the usual limits of such assays
HLA-A*69:01 [22] = test: as above; settings: source organism: Amur virus
HLA-A*03:01 [23] = test: IEDB peptide-MHC binding, purified MHC/competitive/fluorescence; filed as Kd, often an IC50 or EC50 that approximates it; ≥ and ≤ were set here for values at or beyond the usual limits of such assays; settings: source organism: Salmonella enterica subsp. enterica serovar Typhi
HLA-A*68:02 [24] = test: as above; settings: source organism: Salmonella enterica subsp. enterica serovar Typhi
[25] = source organism: Reston ebolavirus - Reston (1989)
[26] = source organism: Reston ebolavirus - Reston
[27] = source organism: Four Corners hantavirus
[28] = source organism: Yersinia pestis Antiqua
[29] = source organism: Entamoeba dispar SAW760
[30] = source organism: Entamoeba histolytica HM-1:IMSS
[31] = source organism: Rickettsia sibirica
[32] = source organism: West Nile virus
[33] = source organism: Salmonella enterica subsp. enterica serovar Typhimurium str. LT2

QLSLRMLSL
Kd (HLA-B*27:03; [25]): ≥ 20 µM
Kd (HLA-B*39:01; [25]): ≥ 20 µM
Kd (HLA-A*02:01 [1]; [25]): ≥ 20 µM
Kd (HLA-A*26:01; [25]): ≥ 20 µM
Kd (HLA-A*69:01 [2]; [25]): ≥ 20 µM
Kd (HLA-B*08:01): 0.859 µM
Kd (HLA-B*58:01; [26]): ≥ 20 µM
Kd (HLA-B*57:01 [3]; [26]): ≥ 20 µM
Kd (HLA-B*48:01): ≥ 20 µM
Kd (HLA-B*18:01 [4]): ≥ 20 µM
Kd (HLA-A*31:01 [5]): ≥ 20 µM
Kd (HLA-A*03:01 [6]; [26]): ≥ 20 µM
Kd (HLA-B*44:02): ≥ 20 µM
Kd (HLA-A*11:01 [7]; [26]): ≥ 20 µM
Kd (HLA-B*15:01 [8]): ≥ 20 µM
Kd (HLA-A*01:01): ≥ 20 µM
Kd (HLA-B*27:05): ≥ 20 µM
Kd (HLA-A*29:02; [26]): ≥ 20 µM
Kd (HLA-B*46:01 [9]): ≥ 20 µM

PELGAFFAI
Kd (HLA-B*27:03; [27]): ≥ 20 µM
Kd (HLA-B*57:01 [10]; [27]): ≥ 20 µM
Kd (HLA-B*39:01; [27]): ≥ 20 µM
Kd (HLA-B*18:01 [11]; [27]): ≥ 20 µM
Kd (HLA-A*02:01 [1]; [27]): ≥ 20 µM
Kd (HLA-A*26:01; [27]): ≥ 20 µM
Kd (HLA-B*15:17 [12]; [27]): ≥ 20 µM
Kd (HLA-B*15:01 [13]; [27]): ≥ 20 µM
Kd (HLA-B*51:01; [27]): ≥ 20 µM
Kd (HLA-A*69:01 [2]; [27]): ≥ 20 µM
Kd (HLA-B*46:01 [14]; [27]): ≥ 20 µM
Kd (HLA-A*02:19; source organism: Choclo virus): ≥ 20 µM
Kd (HLA-A*02:11; source organism: Choclo virus): ≥ 20 µM
Kd (HLA-A*24:03; source organism: Choclo virus): ≥ 20 µM
Kd (HLA-A*02:03; source organism: Choclo virus): ≥ 20 µM
Kd (HLA-A*03:01 [6]; source organism: Choclo virus): ≥ 20 µM
Kd (HLA-A*02:12; source organism: Choclo virus): ≥ 20 µM
Kd (HLA-B*40:01): 0.107 µM
Kd (HLA-A*68:02 [15]; source organism: Choclo virus): ≥ 20 µM
Kd (HLA-A*02:16; source organism: Choclo virus): ≥ 20 µM
Kd (HLA-A*29:02; source organism: Choclo virus): ≥ 20 µM

VSAAGTTLR
Kd (HLA-A*31:01 [16]; source organism: Mycobacterium tuberculosis H37Rv): 0.35 µM
Kd (HLA-A*03:01 [6]; source organism: Mycobacterium tuberculosis): ≥ 20 µM

KVCRSPAQK
Kd (HLA-A*31:01 [16]; source organism: Yersinia pestis Nepal516): 1.64 µM
Kd (HLA-A*03:01 [6]; [28]): 1.81 µM
Kd (HLA-A*11:01 [7]; [28]): 0.115 µM

STYQFSLMQ
Kd (HLA-B*27:03; [29]): ≥ 20 µM
Kd (HLA-B*57:01 [10]; [29]): ≥ 20 µM
Kd (HLA-B*39:01; [29]): ≥ 20 µM
Kd (HLA-B*18:01 [11]; [29]): ≥ 20 µM
Kd (HLA-A*02:01 [1]; [29]): ≥ 20 µM
Kd (HLA-A*26:01; [29]): ≥ 20 µM
Kd (HLA-B*15:17 [12]; [29]): ≥ 20 µM
Kd (HLA-B*51:01; [29]): ≥ 20 µM
Kd (HLA-A*69:01 [2]; [29]): ≥ 20 µM
Kd (HLA-B*46:01 [14]; [29]): ≥ 20 µM
Kd (HLA-A*02:19; [30]): ≥ 20 µM
Kd (HLA-A*02:11; [30]): ≥ 20 µM
Kd (HLA-A*02:03; [30]): ≥ 20 µM
Kd (HLA-A*03:01 [6]; [30]): ≥ 20 µM
Kd (HLA-A*11:01 [7]; [30]): ≥ 20 µM
Kd (HLA-A*02:12; [30]): ≥ 20 µM
Kd (HLA-A*68:02 [15]; [30]): ≥ 20 µM

ASWMALGVY
Kd (HLA-B*58:01; [31]): 1.32 µM
Kd (HLA-B*57:01 [3]; source organism: Rickettsia sibirica 246): ≥ 20 µM
Kd (HLA-B*15:17 [17]; [31]): 0.0239 µM

YQGDYKLFL
IC50 (HLA-A*24:02): 0.902 µM
IC50 (HLA-A*02:01 [18]): 0.601 µM
IC50 (HLA-A*11:01 [19]; source organism: Zaire ebolavirus): 60 µM
IC50 (HLA-B*15:01 [20]): 10.8 µM

KTWGKNLVF
Kd (HLA-B*15:17 [17]; source organism: Yellow fever virus 1899/81): 0.0017 µM

GSRAIWFMW
Kd (HLA-B*57:01 [3]; [32]): 0.038 µM
Kd (HLA-B*15:17 [17]; [32]): 0.063 µM

TLTRGQNTV
Kd (HLA-A*02:19; source organism: Amur virus): 0.137 µM
Kd (HLA-A*02:11; source organism: Amur virus): ≥ 20 µM
Kd (HLA-A*02:01 [21]; source organism: Amur virus): 0.0396 µM
Kd (HLA-A*02:12; source organism: Amur virus): 0.058 µM
Kd (HLA-A*69:01 [22]): ≥ 20 µM

AMAAAGMMY
Kd (HLA-A*03:01 [23]): 0.698 µM
Kd (HLA-B*15:01 [13]; source organism: Salmonella enterica subsp. enterica serovar Typhi): 0.332 µM

AAGIAWIPY
IC50 (HLA-A*11:01 [19]; source organism: Sudan ebolavirus): 29.6 µM

FTGEYLLRL
Kd (HLA-B*27:03; source organism: Homo sapiens): ≥ 20 µM
Kd (HLA-B*57:01 [10]; source organism: Homo sapiens): ≥ 20 µM
Kd (HLA-B*39:01; source organism: Homo sapiens): ≥ 20 µM
Kd (HLA-B*18:01 [11]; source organism: Homo sapiens): ≥ 20 µM
Kd (HLA-A*26:01; source organism: Homo sapiens): ≥ 20 µM
Kd (HLA-B*15:01 [13]; source organism: Homo sapiens): ≥ 20 µM
Kd (HLA-B*51:01; source organism: Homo sapiens): ≥ 20 µM
Kd (HLA-A*69:01 [2]; source organism: Homo sapiens): ≥ 20 µM
Kd (HLA-B*46:01 [14]; source organism: Homo sapiens): ≥ 20 µM
Kd (HLA-A*02:19; [33]): ≥ 20 µM
Kd (HLA-A*24:03; [33]): ≥ 20 µM
Kd (HLA-A*02:01 [21]; source organism: Salmonella enterica subsp. enterica serovar Typhimurium): 0.229 µM
Kd (HLA-A*03:01 [6]; [33]): ≥ 20 µM
Kd (HLA-A*02:12; [33]): 1.04 µM
Kd (HLA-A*68:02 [15]; [33]): ≥ 20 µM
Kd (HLA-A*02:16; [33]): ≥ 20 µM
Kd (HLA-A*29:02; [33]): ≥ 20 µM

WVVDQNGRV
Kd (HLA-A*68:02 [24]): 0.0179 µM
